Test results taken from patent US20210388087A1 (Chugai, published 2021).
Substitutions are numbered along the chain they refer to. In names and notes the source's numbering stands. Each block holds one binder with its values, some of them ahead of it.

Biological target: T1, Human CD137 ECD (human)
T1 construct: also called 4-1BB
Assay: single mutant vs template dBBDu183H

T1 sequence (chain, as listed by the source limits assumed): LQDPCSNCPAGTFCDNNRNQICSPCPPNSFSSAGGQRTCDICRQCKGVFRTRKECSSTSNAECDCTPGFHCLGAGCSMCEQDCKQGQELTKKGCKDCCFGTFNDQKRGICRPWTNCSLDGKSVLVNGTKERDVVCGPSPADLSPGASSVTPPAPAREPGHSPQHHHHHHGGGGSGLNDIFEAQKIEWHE

fold change of affinity: 1.5 fold
B1: H183/L072 VH Q50M (antibody, name in Kabat numbering, V domains shown)
VH: QVQLVESGGGLVQPGRSLRLSCAASGFTFSNAWMHWVRQAPGKGLEWVAMIKDKGNAYAAYYAPSVKGRFTISRDDSKNSIYLQMNSLKTEDTAVYYCHYVHYASASTVLPAFGVDAWGQGTTVTVSS
VL: DIVMTQSPLSLPVTPGEPASISCQASQELVHMNRNTYLHWYQQKPGQAPRLLIYKVSNRFPGVPDRFSGSGSGTDFTLKISRVEAEDVGVYYCAQGTSVPFTFGQGTKLEIK

fold change of affinity: 3.1 fold
B2: H183/L072 VH Q50Y (antibody, name in Kabat numbering, V domains shown)
VH: B1 VH with M50Y
VL: B1 VL

fold change of affinity: 0 fold
B3: H183/L072 VH S100aM (antibody, name in Kabat numbering, V domains shown)
VH: B1 VH with M50Q, S107M
VL: B1 VL

fold change of affinity: 0.6 fold
B4: H183/L072 VH S30E (antibody, name in Kabat numbering, V domains shown)
VH: B1 VH with S30E, M50Q
VL: B1 VL

fold change of affinity: 0 fold
B5: H183/L072 VH S100aA (antibody, name in Kabat numbering, V domains shown)
VH: B1 VH with M50Q, S107A
VL: B1 VL

fold change of affinity: 0.5 fold
B6: H183/L072 VH T28P (antibody, name in Kabat numbering, V domains shown)
VH: B1 VH with T28P, M50Q
VL: B1 VL

fold change of affinity: 0.8 fold
B7: H183/L072 VH T28I (antibody, name in Kabat numbering, V domains shown)
VH: B1 VH with T28I, M50Q
VL: B1 VL

fold change of affinity: 0.5 fold
B8: H183/L072 VH Q50N (antibody, name in Kabat numbering, V domains shown)
VH: B1 VH with M50N
VL: B1 VL

fold change of affinity: 0.6 fold
B9: H183/L072 VH S30I (antibody, name in Kabat numbering, V domains shown)
VH: B1 VH with S30I, M50Q
VL: B1 VL

fold change of affinity: 0.5 fold
B10: H183/L072 VH S30Y (antibody, name in Kabat numbering, V domains shown)
VH: B1 VH with S30Y, M50Q
VL: B1 VL

fold change of affinity: 0.9 fold
B11: H183/L072 VH S30P (antibody, name in Kabat numbering, V domains shown)
VH: B1 VH with S30P, M50Q
VL: B1 VL

fold change of affinity: 1.7 fold
B12: H183/L072 VH Q50W (antibody, name in Kabat numbering, V domains shown)
VH: B1 VH with M50W
VL: B1 VL

fold change of affinity: 0.4 fold
B13: H183/L072 VH T28A (antibody, name in Kabat numbering, V domains shown)
VH: B1 VH with T28A, M50Q
VL: B1 VL

fold change of affinity: 0.7 fold
B14: H183/L072 VH S30Q (antibody, name in Kabat numbering, V domains shown)
VH: B1 VH with S30Q, M50Q
VL: B1 VL

fold change of affinity: 0.7 fold
B15: H183/L072 VH S62A (antibody, name in Kabat numbering, V domains shown)
VH: B1 VH with M50Q, S65A
VL: B1 VL

fold change of affinity: 0.3 fold
B16: H183/L072 VH T28E (antibody, name in Kabat numbering, V domains shown)
VH: B1 VH with T28E, M50Q
VL: B1 VL

fold change of affinity: 0 fold
B17: H183/L072 VH S100aI (antibody, name in Kabat numbering, V domains shown)
VH: B1 VH with M50Q, S107I
VL: B1 VL

fold change of affinity: 0.6 fold
B18: H183/L072 VH S30N (antibody, name in Kabat numbering, V domains shown)
VH: B1 VH with S30N, M50Q
VL: B1 VL

fold change of affinity: 0.7 fold
B19: H183/L072 VH S30K (antibody, name in Kabat numbering, V domains shown)
VH: B1 VH with S30K, M50Q
VL: B1 VL

fold change of affinity: 2 fold
B20: H183/L072 VH Q50T (antibody, name in Kabat numbering, V domains shown)
VH: B1 VH with M50T
VL: B1 VL

fold change of affinity: 0.8 fold
B21: H183/L072 VH S30M (antibody, name in Kabat numbering, V domains shown)
VH: B1 VH with S30M, M50Q
VL: B1 VL

fold change of affinity: 0.8 fold
B22: H183/L072 VH S62M (antibody, name in Kabat numbering, V domains shown)
VH: B1 VH with M50Q, S65M
VL: B1 VL

fold change of affinity: 0.7 fold
B23: H183/L072 VH T28M (antibody, name in Kabat numbering, V domains shown)
VH: B1 VH with T28M, M50Q
VL: B1 VL

fold change of affinity: 0.8 fold
B24: H183/L072 VH S99M (antibody, name in Kabat numbering, V domains shown)
VH: B1 VH with M50Q, S105M
VL: B1 VL

fold change of affinity: 0.5 fold
B25: H183/L072 VH S30W (antibody, name in Kabat numbering, V domains shown)
VH: B1 VH with S30W, M50Q
VL: B1 VL

fold change of affinity: 0.3 fold
B26: H183/L072 VH Q50V (antibody, name in Kabat numbering, V domains shown)
VH: B1 VH with M50V
VL: B1 VL

fold change of affinity: 0.3 fold
B27: H183/L072 VH S99L (antibody, name in Kabat numbering, V domains shown)
VH: B1 VH with M50Q, S105L
VL: B1 VL

fold change of affinity: 1.4 fold
B28: H183/L072 VH S99A (antibody, name in Kabat numbering, V domains shown)
VH: B1 VH with M50Q, S105A
VL: B1 VL

fold change of affinity: 0.9 fold
B29: H183/L072 VH S30T (antibody, name in Kabat numbering, V domains shown)
VH: B1 VH with S30T, M50Q
VL: B1 VL

fold change of affinity: 0.3 fold
B30: H183/L072 VH T28G (antibody, name in Kabat numbering, V domains shown)
VH: B1 VH with T28G, M50Q
VL: B1 VL

fold change of affinity: 1.1 fold
B31: H183/L072 VH T28K (antibody, name in Kabat numbering, V domains shown)
VH: B1 VH with T28K, M50Q
VL: B1 VL

fold change of affinity: 0.6 fold
B32: H183/L072 VH S30H (antibody, name in Kabat numbering, V domains shown)
VH: B1 VH with S30H, M50Q
VL: B1 VL

fold change of affinity: 0.7 fold
B33: H183/L072 VH S30R (antibody, name in Kabat numbering, V domains shown)
VH: B1 VH with S30R, M50Q
VL: B1 VL

fold change of affinity: 0.5 fold
B34: H183/L072 VH S30L (antibody, name in Kabat numbering, V domains shown)
VH: B1 VH with S30L, M50Q
VL: B1 VL

fold change of affinity: 0.7 fold
B35: H183/L072 VH S62I (antibody, name in Kabat numbering, V domains shown)
VH: B1 VH with M50Q, S65I
VL: B1 VL

fold change of affinity: 0.9 fold
B36: H183/L072 VH S62L (antibody, name in Kabat numbering, V domains shown)
VH: B1 VH with M50Q, S65L
VL: B1 VL

fold change of affinity: 0 fold
B37: H183/L072 VH S100aL (antibody, name in Kabat numbering, V domains shown)
VH: B1 VH with M50Q, S107L
VL: B1 VL

fold change of affinity: 0.8 fold
B38: H183/L072 VH S30V (antibody, name in Kabat numbering, V domains shown)
VH: B1 VH with S30V, M50Q
VL: B1 VL

fold change of affinity: 0 fold
B39: H183/L072 VH S99I (antibody, name in Kabat numbering, V domains shown)
VH: B1 VH with M50Q, S105I
VL: B1 VL

fold change of affinity: 0.5 fold
B40: H183/L072 VH T28Q (antibody, name in Kabat numbering, V domains shown)
VH: B1 VH with T28Q, M50Q
VL: B1 VL

fold change of affinity: 0.4 fold
B41: H183/L072 VH S30D (antibody, name in Kabat numbering, V domains shown)
VH: B1 VH with S30D, M50Q
VL: B1 VL

fold change of affinity: 1.2 fold
B42: H183/L072 VH S30A (antibody, name in Kabat numbering, V domains shown)
VH: B1 VH with S30A, M50Q
VL: B1 VL

fold change of affinity: 0.7 fold
B43: H183/L072 VH S30F (antibody, name in Kabat numbering, V domains shown)
VH: B1 VH with S30F, M50Q
VL: B1 VL

fold change of affinity: 0.9 fold
B44: H183/L072 VH S30G (antibody, name in Kabat numbering, V domains shown)
VH: B1 VH with S30G, M50Q
VL: B1 VL

fold change of affinity: 1.1 fold
B45: H183/L072 VH T28H (antibody, name in Kabat numbering, V domains shown)
VH: B1 VH with T28H, M50Q
VL: B1 VL

fold change of affinity: 0.7 fold
B46: H183/L072 VH S62P (antibody, name in Kabat numbering, V domains shown)
VH: B1 VH with M50Q, S65P
VL: B1 VL

fold change of affinity: 0.8 fold
B47: H183/L072 VH Q50S (antibody, name in Kabat numbering, V domains shown)
VH: B1 VH with M50S
VL: B1 VL
